In patent US8383581B2, “Short-chain peptides as parathyroid hormone (PTH) receptor agonist” (Cadila Healthcare Limited, priority 2009, dated 2013):
Where no end group is shown, it is not given here. [ ]: non-standard residue; d: D form. The star is where a group is joined. Bip(2'-Et-4'-OMe) = CCc1cc(OC)ccc1-c1ccc(C[C@H](N)C(=O)O)cc1; Arg(NO2) = N=C(NCCC[C@H](N)C(=O)O)N[N+](=O)[O-]; αMePhe(2,6-F2) = C[C@](N)(Cc1c(F)cccc1F)C(=O)O; αMePhe(2-F) = C[C@](N)(Cc1ccccc1F)C(=O)O; hhPhe = N[C@@H](CCCc1ccccc1)C(=O)O; hArg = N=C(N)NCCCC[C@H](N)C(=O)O; hCit = NC(=O)NCCCC[C@H](N)C(=O)O; αMeF = C[C@](N)(Cc1ccccc1)C(=O)O; Cit = NC(=O)NCCC[C@H](N)C(=O)O; NMeM = CN[C@@H](CCSC)C(=O)O; Decanoyl = CCCCCCCCCC(=O)*; Ac6c = NC1(C(=O)O)CCCCC1; Nle = CCCC[C@H](N)C(=O)O; Orn = NCCC[C@H](N)C(=O)O; Ac5c = NC1(C(=O)O)CCCC1; Ac3c = NC1(C(=O)O)CC1; Aib = CC(C)(N)C(=O)O

Each binder was assayed against T1, rat PTH-1R (rat PTHR endogenously expressed on UMR-106 rat osteosarcoma cells) (rat, UniProt P25961 27-591) (assay: cell-based or functional assay).
T1 sequence (looked up): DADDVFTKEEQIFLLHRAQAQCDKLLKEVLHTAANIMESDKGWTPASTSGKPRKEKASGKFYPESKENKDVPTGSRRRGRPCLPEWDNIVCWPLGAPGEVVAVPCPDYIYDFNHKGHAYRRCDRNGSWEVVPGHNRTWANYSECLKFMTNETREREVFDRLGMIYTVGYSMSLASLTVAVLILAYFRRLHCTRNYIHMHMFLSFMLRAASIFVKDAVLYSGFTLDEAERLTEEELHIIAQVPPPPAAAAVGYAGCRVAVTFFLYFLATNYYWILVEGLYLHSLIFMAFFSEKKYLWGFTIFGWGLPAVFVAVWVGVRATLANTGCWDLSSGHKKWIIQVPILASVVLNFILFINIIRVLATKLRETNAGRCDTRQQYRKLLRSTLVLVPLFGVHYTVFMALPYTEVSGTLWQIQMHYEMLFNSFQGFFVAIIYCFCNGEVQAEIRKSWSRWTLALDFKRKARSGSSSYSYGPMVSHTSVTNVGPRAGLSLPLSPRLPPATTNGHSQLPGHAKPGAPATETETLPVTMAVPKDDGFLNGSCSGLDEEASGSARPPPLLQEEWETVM

Binder	cAMP released with respect to control, 1 nM peptide, UMR-106 cells	cAMP released with respect to control, 10 nM peptide, UMR-106 cells	cAMP released with respect to control, 100 nM peptide, UMR-106 cells
[Ac5c]V[Aib]EIQ[αMePhe(2,6-F2)][Nle]HQ[Orn][Aib][αMePhe(2,6-F2)][Bip(2'-Et-4'-OMe)][hhPhe] [Seq. ID. 841]	32 percent of control	74 percent of control	100 percent of control
[Aib]V[Ac6c]EIQL[Nle]HQ[hArg][Aib]K[αMeF] [Seq. ID. 23]	12 percent of control	41 percent of control	69 percent of control
[Aib]V[Aib]EIQL[Nle]HQ[hArg]AK[Bip(2'-Et-4'-OMe)] [Seq. ID. 647]	56 percent of control	101 percent of control	126 percent of control
[Aib]V[Aib]EIQ[αMePhe(2-F)][Nle]HQ[Aib]A[Aib][αMePhe(2-F)] [Seq. ID. 553]	38 percent of control	98 percent of control	116 percent of control
[Ac5c]V[Aib]EIQL[Nle]HQ[hArg]A[Cit][Bip(2'-Et-4'-OMe)][hhPhe] [Seq. ID. 733]	36 percent of control	98 percent of control	110 percent of control
[Ac5c]V[Aib]EIQL[Nle]HQ[Orn]A[Aib][Bip(2'-Et-4'-OMe)][hhPhe] [Seq. ID. 751]	34 percent of control	88 percent of control	116 percent of control
[Aib]V[Aib]EIQ[αMePhe(2,6-F2)][Nle]HQ[hCit]A[Cit][Bip(2'-Et-4'-OMe)][hhPhe] [Seq. ID. 860]	22 percent of control	50 percent of control	70 percent of control
[Aib]V[Aib]EIQ[αMePhe(2,6-F2)][Nle]HQ[hArg][Aib][Cit][Bip(2'-Et-4'-OMe)][hhPhe] [Seq. ID. 820]	14 percent of control	48 percent of control	66 percent of control
[Ac5c]V[Aib]EIQL[Nle]HQ[αMePhe(2,6-F2)]A[Aib][Bip(2'-Et-4'-OMe)][hhPhe] [Seq. ID. 799]	38 percent of control	99 percent of control	106 percent of control
[Aib]V[Aib]EIQ[αMePhe(2-F)][Nle]HQ[αMePhe(2,6-F2)]A[Arg(NO2)][αMePhe(2-F)] [Seq. ID. 521]	21 percent of control	51 percent of control	69 percent of control
[Aib]V[Aib]EIQ[αMePhe(2,6-F2)][Nle]HQ[hCit][Aib][Arg(NO2)][αMePhe(2,6-F2)] [Seq. ID. 470]	36 percent of control	88 percent of control	116 percent of control
[Ac5c]V[Aib]EIQLMHQ[hArg][Aib]K[αMeF] [Seq. ID. 20]	79 percent of control	111 percent of control	121 percent of control
SVSEIQLMHNLGKHLNSMERVEWLRKKLQDVHNF [PTH (1-34)]	41 percent of control	97 percent of control	100 percent of control
[Aib]V[Aib]EIQ[αMePhe(2,6-F2)][Nle]HQ[αMePhe(2,6-F2)][Aib][Cit][αMePhe(2,6-F2)] [Seq. ID. 486]	34 percent of control	82 percent of control	104 percent of control
[Ac3c]V[Aib]EIQL[NMeM]HQ[hArg]AK(Decanoyl)[Bip(2'-Et-4'-OMe)] [Seq. ID. 678]	48 percent of control	102 percent of control	112 percent of control
[Ac5c]V[Aib]EIQ[αMePhe(2,6-F2)][Nle]HQ[hArg]A[Cit][Bip(2'-Et-4'-OMe)][hhPhe] [Seq. ID. 813]	82 percent of control	109 percent of control	110 percent of control
[Ac5c]V[Aib]EIQ[αMePhe(2,6-F2)][Nle]HQ[αMePhe(2,6-F2)]A[Cit][αMePhe(2-F)] [Seq. ID. 479]	48 percent of control	99 percent of control	112 percent of control
[Ac3c]V[Aib]EIQ[αMePhe(2,6-F2)][Nle]HQ[hArg]A[Arg(NO2)][Bip(2'-Et-4'-OMe)][hhPhe] [Seq. ID. 694]	19 percent of control	64 percent of control	80 percent of control
[Aib]V[Ac5c]EIQ[αMePhe(2-F)][Nle]HQ[hArg]AK[αMeF] [Seq. ID. 30]	19 percent of control	51 percent of control	80 percent of control
[Aib]V[Aib]EIQ[αMePhe(2,6-F2)][Nle]HQ[Aib][Aib][Arg(NO2)][αMePhe(2,6-F2)] [Seq. ID. 598]	38 percent of control	79 percent of control	119 percent of control
[Ac3c]V[Ac3c]EIQLMHQ[hArg]AK[Bip(2'-Et-4'-OMe)][hhPhe] [Seq. ID. 609]	39 percent of control	101 percent of control	120 percent of control
[Ac5c]V[Aib]EIQ[αMePhe(2-F)][Nle]HQ[Aib][Aib][Cit][αMePhe(2-F)] [Seq. ID. 540]	16 percent of control	57 percent of control	75 percent of control
[Ac5c]V[Ac3c]EIQL[Nle]HQ[hArg]AK(Decanoyl)[Bip(2'-Et-4'-OMe)][hhPhe] [Seq. ID. 637]	36 percent of control	98 percent of control	110 percent of control
[Aib]V[Aib]EIQ[αMePhe(2,6-F2)][Nle]HQ[αMePhe(2,6-F2)]A[Aib][αMePhe(2,6-F2)] [Seq. ID. 501]	28 percent of control	71 percent of control	87 percent of control
[Aib]V[Aib]EIQ[αMePhe(2-F)][Nle]HQ[αMePhe(2,6-F2)][Aib][αMePhe(2,6-F2)][αMePhe(2,6-F2)] [Seq. ID. 514]	19 percent of control	64 percent of control	80 percent of control
[Ac5c]V[Aib]EIQL[Nle]HQ[hCit]A[Cit][Bip(2'-Et-4'-OMe)][hhPhe] [Seq. ID. 781]	16 percent of control	57 percent of control	75 percent of control
[Ac3c]V[Aib]EIQ[αMePhe(2-F)][Nle]HQ[hArg]A[Arg(NO2)][αMePhe(2,6-F2)][hhPhe] [Seq. ID. 712]	15 percent of control	54 percent of control	69 percent of control
